Data reported in patent US20210221894A1 (DRAGONFLY THERAPEUTICS, published 2021).
Where a chain is given by its changes, count along the chain named. Each block holds one binder with its values, some of them ahead of it.

Assays:
[1] = target: T1, recombinant human DLL3 (ELISA coat) (human, UniProt Q9NYJ7 27-492); assay: ELISA, plate coated with recombinant human DLL3 0.5 µg/ml, anti-mouse IgG-HRP
T1 sequence: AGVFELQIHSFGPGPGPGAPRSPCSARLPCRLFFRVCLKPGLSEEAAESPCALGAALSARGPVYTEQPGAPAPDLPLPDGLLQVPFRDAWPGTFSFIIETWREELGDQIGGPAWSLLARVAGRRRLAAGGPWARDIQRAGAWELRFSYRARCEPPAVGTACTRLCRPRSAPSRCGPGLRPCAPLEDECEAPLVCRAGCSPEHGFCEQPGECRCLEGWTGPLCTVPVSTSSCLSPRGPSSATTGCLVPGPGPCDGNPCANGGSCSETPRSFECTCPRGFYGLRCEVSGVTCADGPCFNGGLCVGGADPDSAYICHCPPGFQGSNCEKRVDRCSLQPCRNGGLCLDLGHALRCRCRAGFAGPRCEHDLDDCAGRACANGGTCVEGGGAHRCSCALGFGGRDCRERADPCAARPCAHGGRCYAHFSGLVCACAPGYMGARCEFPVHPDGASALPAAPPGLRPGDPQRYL
Method: (§1) To investigate the binding of anti-DLL3 antibodies to human DLL3, wells of high binding flat-bottom plates were coated with recombinant human DLL3 diluted to 0.5 μg/ml. To assess cross-reactivity of the antibodies to DLL1/DLL4, which are closely related family members to DLL3, plates were coated with recombinant human DLL1 diluted to 1 μg/ml, or human DLL4 diluted to 0.5 μg/ml. […] Binding was detected using anti-mouse IgG-HRP and 3,3′,5,5′-Tetramethylbenzidine (TMB) substrate. Signals were normalized to the corresponding positive control antibody.
Table 38 lists the calculated EC₅₀ based on the binding data from FIG. 24.

[2] = target: T2, extracellular domain (ECD) of human DLL3 (AdipoGen Life Sciences) (human, UniProt Q9NYJ7 27-492); assay: SPR (Biacore 8K), 37 C, antibody captured on anti-mouse Fc, DLL3 ECD injected, 1:1 fit
T2 construct: Bought and further purified by size exclusion chromatography; also called hDLL3 ECD; DLL3 ECD
T2 sequence: T1 sequence
Excerpt: The binding kinetics of different anti-DLL3 antibodies to recombinant proteins of different domains of human DLL3 were studied by surface plasmon resonance (SPR) using a Biacore™ 8K instrument. These anti-DLL3 antibodies were produced from mouse hybridomas, and each included a heavy chain variable region and light chain variable region described herein. Briefly, antibodies recognizing human IgG Fc and antibodies recognizing mouse IgG Fc were immobilized on different channels of a Biacore™ 8K chip to allow simultaneous analysis of human and murine anti-DLL3 antibodies. Murine anti-DLL3 antibodies were captured on the anti-mouse Fc channel of the Biacore chip. The human anti-DLL3 antibody from Stemcentrx (San Francisco, Calif.) was used as a control and was captured onto anti-human Fc channel of the Biacore™ chip. Different concentrations of DLL3 ECD, DLL3 N-terminal domain, EGF2-6, EGF3-6, EGF4-6, or EGF5-6 domains of DLL3 were injected. Experiments were performed at 37° C. Biacore™ 8K evaluation software was used for all data analysis. To obtain kinetic rate constants double-referenced data were fit to a 1:1 interaction model using Biacore™ 8K Evaluation software (GE Healthcare, Marlborough, Mass.). The equilibrium binding constant KD was determined by the ratio of binding rate constants kd/kₐ.
Table 36 lists the calculated binding kinetics (KD). […] Stemcentrx anti-DLL3 antibody was used as a control.

recombinant human DLL1 = target: T3, recombinant human DLL1 (human, UniProt O00548 18-540, limits assumed); assay: ELISA, plate-bound recombinant human DLL1 (1 µg/mL), anti-mouse IgG-HRP/TMB, % of positive control max
T3 sequence (looked up): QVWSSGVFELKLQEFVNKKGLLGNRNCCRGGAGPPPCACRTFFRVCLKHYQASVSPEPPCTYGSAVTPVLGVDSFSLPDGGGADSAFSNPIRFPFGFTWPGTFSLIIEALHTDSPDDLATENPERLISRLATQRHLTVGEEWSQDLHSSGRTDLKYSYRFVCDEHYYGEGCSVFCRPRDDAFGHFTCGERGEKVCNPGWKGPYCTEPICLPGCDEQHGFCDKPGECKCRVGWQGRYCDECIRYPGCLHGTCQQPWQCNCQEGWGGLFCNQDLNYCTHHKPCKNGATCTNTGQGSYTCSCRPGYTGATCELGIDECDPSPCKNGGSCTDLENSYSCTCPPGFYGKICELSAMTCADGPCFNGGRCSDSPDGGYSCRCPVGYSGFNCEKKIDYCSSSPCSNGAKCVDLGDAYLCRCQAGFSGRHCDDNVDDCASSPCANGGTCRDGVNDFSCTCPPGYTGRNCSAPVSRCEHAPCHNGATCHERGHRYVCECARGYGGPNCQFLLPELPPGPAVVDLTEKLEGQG
Method: as §1

human DLL3-His = target: T4, human DLL3-His (human, UniProt Q9NYJ7 27-492); assay: SPR (Biacore 8K), 37 C, antibody captured on anti-human Fc, DLL3-His 0.411-300 nM injected, 1:1 fit
T4 construct: also called hDLL3
T4 sequence: T1 sequence
Excerpt: The kinetics of binding of different humanized variants and parental murine 5E7 antibody to human DLL3-His was studied by Surface Plasmon Resonance using a Biacore 8K instrument. Briefly, anti-hFc and anti-mFc IgG proteins were covalently immobilized onto different channels of CMS chip to allow simultaneous analysis of human and murine antibodies. m5E7 was captured on the anti-mouse Fc channel and humanized variants were captured on the anti-human Fc channel at a desired capture level of […] in HBS-EP+ buffer supplemented with 0.1% BSA. Three buffer blanks and human DLL3-His (analyte) at concentrations 0.411-300 nM (in three fold dilutions) were injected over the surface with captured murine or humanized 5E7 for 300 second association time and let dissociate for 600 second at a flow rate of 30 μL/min. The surfaces were subjected to regeneration with three 20-second pulses of 10 mM glycine pH 1.70 at a flow rate of 100 μL/min between every concentration of analyte. The experiment was conducted at 37° C. Data were double referenced and a 1:1 fit model was applied to the sensorgrams in the Biacore Insight Evaluation software.
The kinetic parameters of human DLL3-His binding to murine and humanized variants of 5E7 antibody variants were calculated and shown in Table 39.

[3] = target: T5, recombinant human NKG2D-Fc fusion protein (human, UniProt P26718 73-216); assay: ELISA, plate-bound recombinant human NKG2D-Fc, anti-human kappa-HRP/TMB
T5 construct: extracellular domain; also called NKG2D-Fc-biotin; not shown: human IgG1 Fc domain
T5 sequence (looked up): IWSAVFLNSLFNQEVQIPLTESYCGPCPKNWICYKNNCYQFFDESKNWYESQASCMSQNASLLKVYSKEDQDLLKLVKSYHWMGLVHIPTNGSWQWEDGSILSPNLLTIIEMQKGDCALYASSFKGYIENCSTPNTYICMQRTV
Excerpt: (§2) The nucleic acid sequences of human, mouse or cynomolgus NKG2D ectodomains were fused with nucleic acid sequences encoding human IgG1 Fc domains and introduced into mammalian cells to be expressed. After purification, NKG2D-Fc fusion proteins were adsorbed to wells of microplates. After blocking the wells with bovine serum albumin to prevent non-specific binding, NKG2D-binding domains were titrated and added to the wells pre-adsorbed with NKG2D-Fc fusion proteins. Primary antibody binding was detected using a secondary antibody which was conjugated to horseradish peroxidase and specifically recognizes a human kappa light chain to avoid Fc cross-reactivity. 3,3′,5,5′-Tetramethylbenzidine (TMB), a substrate for horseradish peroxidase, was added to the wells to visualize the binding signal, whose absorbance was measured at 450 nm and corrected at […]. An NKG2D-binding domain clone, an isotype control or a positive control (comprising heavy chain and light chain variable domains selected from SEQ ID NOs:101-104, or anti-mouse NKG2D clones MI-6 and CX-5, eBioscience, San Diego, Calif.) was added to each well.

[4] = target: T6, recombinant cynomolgus NKG2D-Fc fusion protein (cynomolgus; human, UniProt P61252 73-216); assay: ELISA, plate-bound recombinant cynomolgus NKG2D-Fc, anti-human kappa-HRP/TMB
T6 construct: extracellular domain; not shown: human IgG1 Fc domain
T6 sequence (looked up): T5 sequence (looked up) with D43N, T133I
Excerpt: as §2

[5] = target: T7, recombinant mouse NKG2D-Fc fusion protein (mouse; human, UniProt O54709 90-232); assay: ELISA, plate-bound recombinant mouse NKG2D-Fc, anti-human kappa-HRP/TMB
T7 construct: extracellular domain; also called Mouse NKG2D-Fc-biotin; not shown: human IgG1 Fc domain
T7 sequence (looked up): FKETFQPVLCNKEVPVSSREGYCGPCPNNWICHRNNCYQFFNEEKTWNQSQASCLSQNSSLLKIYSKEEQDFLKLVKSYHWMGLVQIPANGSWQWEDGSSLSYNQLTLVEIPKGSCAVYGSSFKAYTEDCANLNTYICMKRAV
Excerpt: as §2

- EC50 [1]: 0.45 nM
- Kd [2]: 5.11 nM
- koff [2]: 0.00208 s⁻¹
- kon [2]: 408000 M⁻¹ s⁻¹
- binding result (recombinant human DLL1): no binding
B1: anti-DLL3 antibody clone 9E6 (antibody, V domains shown)
VH: QLQLVQSGPELMRPGETVKISCKASGYTFTTYGMNWVKQAPGKGLKWVGWINTYSGVPTYADDFKGRFAFSLESSASTAFLQINNLKDEDTATYFCARFGNYGFDCWGQGTTLTVSS
VL: DIVMTQSPSSLSVSAGEKVTMSCKSSQSLLNSGNQKNYLAWYQQKPGQPPKLLIYGASTRESGVPDRFTGSGSGTDFTLTISSVQAEDLAVYYCQNDHIYPYTFGGGTKLEIK
notes: Murine antibody from a mouse hybridoma

- EC50 [1]: 0.64 nM
- binding result (recombinant human DLL1): no binding
B2: anti-DLL3 antibody clone 10F5 (antibody, V domains shown)
VH: B1 VH
VL: B1 VL
notes: as for B1

- Kd (human DLL3-His): 0.27 nM
- koff (human DLL3-His): 0.00013 s⁻¹
- kon (human DLL3-His): 474000 M⁻¹ s⁻¹
B4: humanized anti-DLL3 antibody h5E7-YD-B5 (antibody, V domains shown)
VH: QVQLVQSGAEVKKPGASVKVSCKASGFNIKDDYIHWVRQAPGQGLEWMGWIDSENGDTEYASKFQGRVTITADTSANTAYMELSSLRSEDTAVYYCATSTYWSYDLFVYWGQGTLVTVSS
VL: DVQMTQSPSSLSASVGDRVTITCKSSQSLLHSNGKTYLNWLQQKPGQAPKLLLYLVSKLESGVPSRFSGSGSGTDYTLTISSLQPEDFATYYCLQTTHLYTFGQGTKLEIK
notes: Expressed as IgG1 mAb: human IgG1 CH1-CH2-CH3 and human constant kappa; also called B5 variant

- Kd (human DLL3-His): 3.35 nM
- koff (human DLL3-His): 0.00137 s⁻¹
- kon (human DLL3-His): 409000 M⁻¹ s⁻¹
B5: humanized anti-DLL3 antibody h5E7-YD-C6 (antibody, V domains shown)
VH: B4 VH with T100E, W102Y
VL: B4 VL
notes: Expressed as IgG1 mAb: human IgG1 CH1-CH2-CH3 and human constant kappa; also called C6 variant

- binding result [3]: binds
- binding result [4]: binds
- binding result [5]: binds
B9: ADI-27741 (antibody, V domains shown)
VH: QVQLQQWGAGLLKPSETLSLTCAVYGGSFSGYYWSWIRQPPGKGLEWIGEIDHSGSTNYNPSLKSRVTISVDTSKNQFSLKLSSVTAADTAVYYCARARGPWSFDPWGQGTLVTVSS
VL: DIQMTQSPSTLSASVGDRVTITCRASQSIGSWLAWYQQKPGKAPKLLIYKASSLESGVPSRFSGSGSGTEFTLTISSLQPDDFATYYCQQSNSYYTFGGGTKVEIK

- binding result [3]: binds
- EC50 (read off the curve) [4]: ~1 nM
- binding result [5]: binds
B10: ADI-28226 (antibody, V domains shown)
VH: B9 VH
VL: DIQMTQSPSTLSASVGDRVTITCRASQSISSWLAWYQQKPGKAPKLLIYKASSLESGVPSRFSGSGSGTEFTLTISSLQPDDFATYYCQQYGSFPITFGGGTKVEIK
notes: also called C26

Second part, the binder before the results:

B3: humanized anti-DLL3 antibody h5E7-YD-A6 (antibody, V domains shown)
VH: B4 VH with T100S
VL: B4 VL
notes: Expressed as IgG1 mAb: human IgG1 CH1-CH2-CH3 and human constant kappa; also called A6 variant
- Kd (human DLL3-His): 1.1 nM
- koff (human DLL3-His): 0.000434 s⁻¹
- kon (human DLL3-His): 396000 M⁻¹ s⁻¹

B6: humanized anti-DLL3 antibody h5E7-YD-F3 (antibody, V domains shown)
VH: B4 VH with T100S, F107L
VL: B4 VL
notes: Expressed as IgG1 mAb: human IgG1 CH1-CH2-CH3 and human constant kappa; also called F3 variant
- Kd (human DLL3-His): 1.29 nM
- koff (human DLL3-His): 0.000405 s⁻¹
- kon (human DLL3-His): 312000 M⁻¹ s⁻¹

B7: ADI-27705 (antibody, V domains shown)
VH: B9 VH
VL: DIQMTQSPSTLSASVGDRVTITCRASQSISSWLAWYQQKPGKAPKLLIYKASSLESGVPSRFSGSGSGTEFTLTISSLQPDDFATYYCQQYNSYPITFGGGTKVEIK
- EC50 (read off the curve) [3]: ~0.6 nM
- binding result [4]: binds
- binding result [5]: binds

B8: ADI-27724 (antibody, V domains shown)
VH: B9 VH
VL: not shown
- EC50 (read off the curve) [3]: ~10 nM
- EC50 (read off the curve) [4]: ~10 nM
- EC50 (read off the curve) [5]: ~8 nM
